In this assay the target is C5a receptor (mouse) (UniProt P30993). In words: cell-based or functional assay.
Chain of C5a receptor (mouse) (P30993 whole entry): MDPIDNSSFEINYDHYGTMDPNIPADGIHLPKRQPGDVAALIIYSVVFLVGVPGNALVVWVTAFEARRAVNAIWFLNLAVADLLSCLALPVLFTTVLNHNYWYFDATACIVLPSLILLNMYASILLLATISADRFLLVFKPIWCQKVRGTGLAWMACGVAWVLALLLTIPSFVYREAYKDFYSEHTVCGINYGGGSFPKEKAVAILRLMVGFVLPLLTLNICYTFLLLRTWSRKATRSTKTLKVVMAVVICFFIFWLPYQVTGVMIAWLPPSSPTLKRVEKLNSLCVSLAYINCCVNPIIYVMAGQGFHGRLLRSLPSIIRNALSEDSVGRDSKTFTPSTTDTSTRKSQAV

On to “Murine C5a (from UniProt P06684 679-755) (ligand)”, for which the 6 hr viability of C5-deficient or C3-/- T cells in serum-free medium stood at 25%.

The values are drawn from patent US20110135656A1.
